Columns and labels:
integrin αvβ3 [1] = target: T1, integrin αvβ3 (human, UniProt P06756 31-1048; P05106 27-788); assay: cell-based or functional assay
integrin αvβ3 [2] = target: T1, integrin αvβ3; assay: HUVEC adhesion to immobilized peptide with function blocking antibodies
Method: RGD peptides (P-1, P-2, P-3, P-4, P-5, and P-C) were immobilized (100 μg/ml) to wells. HUVEC, HMVEC, HRMVEC, and HDF cells were suspended in adhesion buffer (RPMI containing 1 mM MgCl2, 0.2 mM MnCl2 and 0.5% BSA) and 1×10^5 cells were seeded into the wells in the presence or absence of P4C10, LM609, P1F6 or control antibodies (100 μg/ml). Cells were allowed to attach for 25 min at 37° C. Media containing non-attached cells was aspirated and attached cells were washed with PBS and stained with crystal violet. Cell adhesion was quantified by measuring the optical density of eluted dye. Adhesion assays were completed at least three times with triplicate wells.
It is well established that multiple integrins recognize RGD amino acid motifs within ECM proteins. However, the ability of an integrin to bind distinct RGD epitopes depends in part on its orientation within the parent molecule and the C-terminal amino acid sequences flanking the RGD motif (25-27). Potential cell surface receptors that mediate interactions with the RGDKGE (SEQ ID NO. 1) containing collagen P-2 peptide were identified. The ability of endothelial cells to bind the RGD collagen peptides P-1 and P-2 in the presence or absence of function blocking anti-integrin antibodies was examined.

T1 sequence (P06756 31-1048, chain 1 of 2): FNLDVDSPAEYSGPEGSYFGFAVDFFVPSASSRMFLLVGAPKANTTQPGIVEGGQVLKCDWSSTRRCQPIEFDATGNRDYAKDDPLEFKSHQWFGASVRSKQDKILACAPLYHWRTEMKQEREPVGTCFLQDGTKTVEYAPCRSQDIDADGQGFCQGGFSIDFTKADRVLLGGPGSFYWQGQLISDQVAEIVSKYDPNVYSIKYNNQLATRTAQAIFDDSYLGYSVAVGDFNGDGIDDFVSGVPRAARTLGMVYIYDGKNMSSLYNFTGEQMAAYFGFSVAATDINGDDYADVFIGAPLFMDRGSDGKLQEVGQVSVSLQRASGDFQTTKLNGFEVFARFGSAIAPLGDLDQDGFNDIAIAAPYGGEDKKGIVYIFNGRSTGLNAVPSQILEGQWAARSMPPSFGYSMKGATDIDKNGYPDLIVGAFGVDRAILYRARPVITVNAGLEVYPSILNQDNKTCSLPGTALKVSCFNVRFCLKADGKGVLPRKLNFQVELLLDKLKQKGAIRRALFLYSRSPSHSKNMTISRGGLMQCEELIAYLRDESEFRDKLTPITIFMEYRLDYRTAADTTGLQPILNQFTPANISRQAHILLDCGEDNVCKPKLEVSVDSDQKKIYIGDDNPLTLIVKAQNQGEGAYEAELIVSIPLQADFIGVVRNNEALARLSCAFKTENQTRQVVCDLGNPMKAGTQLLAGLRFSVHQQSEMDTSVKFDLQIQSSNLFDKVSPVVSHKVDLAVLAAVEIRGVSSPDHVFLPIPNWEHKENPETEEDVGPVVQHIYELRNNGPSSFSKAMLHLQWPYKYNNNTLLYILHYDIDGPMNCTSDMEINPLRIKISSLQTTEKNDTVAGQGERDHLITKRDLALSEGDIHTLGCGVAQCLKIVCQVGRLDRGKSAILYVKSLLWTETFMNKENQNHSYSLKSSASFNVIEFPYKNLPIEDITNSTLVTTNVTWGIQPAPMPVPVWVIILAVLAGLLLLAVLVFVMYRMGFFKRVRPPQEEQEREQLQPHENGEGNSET
T1 sequence (P05106 27-788, chain 2 of 2): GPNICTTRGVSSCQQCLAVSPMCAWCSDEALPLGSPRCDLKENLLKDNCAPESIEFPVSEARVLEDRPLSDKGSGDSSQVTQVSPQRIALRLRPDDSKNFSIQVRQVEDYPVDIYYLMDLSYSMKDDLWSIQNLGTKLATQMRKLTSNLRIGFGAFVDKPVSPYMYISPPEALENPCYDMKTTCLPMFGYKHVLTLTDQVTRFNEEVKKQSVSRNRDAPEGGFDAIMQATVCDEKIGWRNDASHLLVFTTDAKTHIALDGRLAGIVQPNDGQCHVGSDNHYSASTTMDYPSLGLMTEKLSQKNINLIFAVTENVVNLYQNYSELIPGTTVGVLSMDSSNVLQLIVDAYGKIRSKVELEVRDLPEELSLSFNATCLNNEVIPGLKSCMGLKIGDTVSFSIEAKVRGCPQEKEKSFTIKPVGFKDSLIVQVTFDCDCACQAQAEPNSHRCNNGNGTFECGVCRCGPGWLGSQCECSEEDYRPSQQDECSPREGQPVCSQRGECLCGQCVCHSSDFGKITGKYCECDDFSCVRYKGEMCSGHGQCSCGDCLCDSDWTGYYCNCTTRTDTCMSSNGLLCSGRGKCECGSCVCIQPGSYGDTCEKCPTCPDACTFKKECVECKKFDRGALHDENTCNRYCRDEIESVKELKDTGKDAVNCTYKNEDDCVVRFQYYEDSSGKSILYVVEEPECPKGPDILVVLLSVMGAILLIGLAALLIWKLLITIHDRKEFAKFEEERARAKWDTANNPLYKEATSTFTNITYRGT

Binder	Src phosphorylation (Western blot of HUVEC attached to the peptide, serum free) (integrin αvβ3 [1]) [fold]	β3-integrin phosphorylation (Western blot of HUVEC attached to the peptide, no growth factors) (integrin αvβ3 [1]) [fold]	binding result (integrin αvβ3 [2])
CQGPRGDKGEC [Synthetic collagen RGD containing peptide P-2 (CQGPRGDKGEC)]	~2	> 3	–
CKGDRGDAPGC (2) [Synthetic collagen RGD containing peptide P-1 (CKGDRGDAPGC)]	–	–	binds

From patent US20210100901A1 (MAINE MEDICAL CENTER RESEARCH INSTITUTE, published 2021)
